Primed or numbered codes have the meaning given here. Where no end group is shown, it is not given here. FITC′ = fluorescein isothiocyanate; Ahx = NCCCCCC(=O)O
Columns and labels:
Conditions in all cases: both partners purified
[1] = molecular target: T1, mouse PP1γ catalytic domain (residues 7–300)-H6 (mouse, UniProt P63087 7-300); assay: fluorescence polarisation; fluorescence anisotropy; serial dilution of PP1γ catalytic domain with 2 nM FITC-GADD34 peptide; Tris pH 8.5 in place of HEPES pH 8
T1 construct: Protein phosphatase 1 gamma catalytic domain, mouse, residues 7-300; also called PP1 catalytic domain; source: E. coli T7 Express lysY/Iq, purified (Ni-NTA, SEC)
T1 sequence (P63087 7-300): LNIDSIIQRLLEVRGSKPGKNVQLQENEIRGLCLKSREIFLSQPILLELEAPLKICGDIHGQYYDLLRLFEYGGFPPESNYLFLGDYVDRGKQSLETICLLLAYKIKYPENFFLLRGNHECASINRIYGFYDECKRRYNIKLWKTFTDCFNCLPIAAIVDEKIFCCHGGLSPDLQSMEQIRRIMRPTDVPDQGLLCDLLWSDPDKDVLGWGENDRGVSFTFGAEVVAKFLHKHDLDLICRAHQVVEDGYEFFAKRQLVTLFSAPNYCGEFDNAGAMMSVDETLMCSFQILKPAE

[2] = molecular target: T1, mouse PP1γ catalytic domain (residues …); assay: fluorescence polarisation; fluorescence anisotropy; serial dilution of PP1γ catalytic domain with 2 nM FITC-GADD34 peptide; 27°C; 50 mM HEPES pH 8.0, 500 mM NaCl, 0.05% TWEEN-20; one-site model
[3] = molecular target: T1, mouse PP1γ catalytic domain (residues …); assay: fluorescence polarisation; competition fluorescence anisotropy; competitor titrated into a pre-formed complex of 2 nM FITC-GADD34 peptide and 250 nM PP1γ (final); 27°C; 50 mM HEPES pH 8.0, 500 mM NaCl, 0.05% TWEEN-20
[4] = molecular target: T1, mouse PP1γ catalytic domain (residues …); assay: ITC; 25°C; 50 mM HEPES pH 8.0, 500 mM NaCl, 0.5 mM TCEP; 12 x 3 µL injections; one-site binding model; syringe and cell contents in Table S1
[5] = molecular target: T1, mouse PP1γ catalytic domain (residues …); assay: fluorescence polarisation; competition fluorescence anisotropy; pUL21 titrated into a pre-formed complex of 2 nM FITC-GADD34 peptide and 250 nM PP1γ; Tris pH 8.5 in place of HEPES pH 8

B1: GADD34 RVxF+ϕϕ[xF] peptide (residues 552–568), FITC-labelled (peptide)
peptide: {FITC′-Ahx}-KARKVRFSEKVTVHFLA
notes: GADD34 (PP1 regulatory subunit 15A, PPP1R15A), residues 552-568 with the RVxF and ϕϕ[xF] motifs; also called GADD34 peptide; fluorescent GADD34 peptide; source: synthetic peptide (GenScript, >95% purity)
Kd [1]: 55 nM
Kd [2]: 144 nM

B2: pORF38-NLT-H6 (residues 1–263) (domain or fragment)
chain: MEFPYHSTVSYNGVTFYFNERATRAYFICGGCLISIPRKHGGEIAKFGHVVRGVGPGDRSVASYVRSELNRTGKTWAVSSNNNCVFLDRVALLAAGSGAVDRDLCGTFDVEVEDPTLADYLVSLPVTHLTLVAGVDVTRENKLKLFPTPTAINTTNGFMYVPNEASFSLVYMRMLELPESLQELVSGLFDGTPEIRDALNGSNDDEKTSIIVSRRAADVVTEDVKADDVPISGEPYSEKQPRRRKKSDHITLSNFVQIRTIPR
notes: VZV pORF38 residues 1-263: N-terminal domain plus linker region to the end of the TROPPO motif (NLT region); Sub-cloned into the vector pOPTnH; also called pOPF38-NLT; source: E. coli T7 Express lysY/Iq, purified (Ni-NTA, SEC); not shown: His6, C-terminal, kept
IC50 [3]: 417 nM
Kd [4]: 497 nM
stoichiometry N [4]: 1

B3: pUL21-RVxF-H6 (A237V+V239F) (natural protein)
chain: MELSYATTMHYRDVVFYVTTDRNRAYFVCGGCVYSVGRPCASQPGEIAKFGLVVRGTGPDDRVVANYVRSELRQRGLQDVRPIGEDEVFLDSVCLLNPNVSSELDVINTNDVEVLDECLAEYCTSLRTSPGVLISGLRVRAQDRIIELFEHPTIVNVSSHFVYTPSPYVFALAQAHLPRLPSSLEALVSGLFDGIPAPRQPLDAHNPRTDVVITGRRAPRPIAGSGAGSGGAGAKRVTFSEFVQVKHIDRVGPAGVSPAPPPNNTDSSSLVPGAQDSAPPGPTLRELWWVFYAADRALEEPRADSGLTREEVRAVRGFREQAWKLFGSAGAPRAFIGAALGLSPLQKLAVYYYIIHRERRLSPFPALVRLVGRYTQRHGLYVPRPDDPVLADAINGLFRDALAAGTTAEQLLMFDLLPPKDVPVGSDVQADSTALLRFIESQRLAVPGGVISPEHVAYLGAFLSVLYAGRGRMSAATHTARLTGVTSLVLAVGDVDRLSAFDRGAAGAASRTRAAGYLDVLLTVRLARSQHGQSV
notes: HSV-1 pUL21 with A237V and V239F, made from pUL21-H6 (the full-length protein) by site-directed mutagenesis; methods, results and legend say V239F; also called RVxF pUL21; A237V+V239F (RVxF) mutant; source: E. coli T7 Express lysY/Iq, purified (Ni-NTA, SEC); not shown: His6, C-terminal, kept
IC50 [5]: 337 nM

— paper doi:10.1101/2025.07.22.666160, “Alphaherpesvirus pUL21 homologues use non-canonical motifs to compete with cellular adaptors for protein phosphatase 1 binding” (bioRxiv, 2025)
